Where only a bound is given, the exact number is not on record here.

B1: PADI4_3i (peptide)
chain: YDRHHYRHPKYCG
modifications: not fully specified; D-tyrosine at position 1; acetylated N-terminus joined by a thioether bond to the side chain of Cys12 (cyclic); C-terminal amide
B2: PADI4_8 (peptide)
peptide: YTLWTVLVVICCG
modifications: not fully specified; D-tyrosine at position 1; cyclised via a thioether bond between the N-terminus (chloroacetylated) and the cysteine side chain (the cysteine marked C(S-), Cys11 from the letters); C-terminal amide
notes: cyclic peptide from RaPID selection 2 (0 mM CaCl2); source: synthetic peptide (Fmoc solid-phase synthesis, HPLC purified)
B3: PADI4_9 (peptide)
peptide: YAQWYIWVLLCG
modifications: not fully specified; D-tyrosine at position 1; cyclised via a thioether bond between the N-terminus (chloroacetylated) and the cysteine side chain (Cys11, from the letters); C-terminal amide
notes: as for B2
B4: PADI4_7 (peptide)
peptide: YYPKGSWGYKLFCG
modifications: not fully specified; D-tyrosine at position 1; cyclised via a thioether bond between the N-terminus (chloroacetylated) and the cysteine side chain (Cys13, from the letters); C-terminal amide
notes: cyclic peptide from RaPID selection 2 (0 mM CaCl2); also called PAD4_7; source: synthetic peptide (Fmoc solid-phase synthesis, HPLC purified)
B5: PADI4_5 (peptide)
peptide: YATPWLIVVLCG
modifications: not fully specified; D-tyrosine at position 1; cyclised via a thioether bond between the N-terminus (chloroacetylated) and the cysteine side chain (Cys11, from the letters); C-terminal amide
notes: cyclic peptide from RaPID selection 1 (10 mM CaCl2); source: synthetic peptide (Fmoc solid-phase synthesis, HPLC purified)
B6: PADI4_4 (peptide)
peptide: YHRLIVVIYVCG
modifications: not fully specified; D-tyrosine at position 1; cyclised via a thioether bond between the N-terminus (chloroacetylated) and the cysteine side chain (Cys11, from the letters); C-terminal amide
notes: as for B5
B7: PADI4_10 (peptide)
peptide: YPWEISVWLLYCG
modifications: not fully specified; D-tyrosine at position 1; cyclised via a thioether bond between the N-terminus (chloroacetylated) and the cysteine side chain (Cys12, from the letters); C-terminal amide
notes: as for B2
B8: PADI4_6 (peptide)
peptide: YLVLTIRLVLCG
modifications: not fully specified; D-tyrosine at position 1; cyclised via a thioether bond between the N-terminus (chloroacetylated) and the cysteine side chain (Cys11, from the letters); C-terminal amide
notes: as for B5
B9: PADI4_1 (peptide)
peptide: YFYRIGFWYPNYQCG
modifications: not fully specified; D-tyrosine at position 1; cyclised via a thioether bond between the N-terminus (chloroacetylated) and the cysteine side chain (Cys14, from the letters); C-terminal amide
notes: cyclic peptide from RaPID selection 1 (10 mM CaCl2); also called PAD4_1; source: synthetic peptide (Fmoc solid-phase synthesis, HPLC purified)
B10: PADI4_2 (peptide)
peptide: YRDHRSPFDGYCG
modifications: not fully specified; D-tyrosine at position 1; cyclised via a thioether bond between the N-terminus (chloroacetylated) and the cysteine side chain (Cys12, from the letters); C-terminal amide
B11: PADI4_12 (peptide)
peptide: YEPCRFREILDL
modifications: not fully specified; L-tyrosine at position 1; cyclised via a thioether bond between the N-terminus (chloroacetylated) and the cysteine side chain (Cys4, from the letters); C-terminal amide
B12: PADI4_11 (peptide)
peptide: YESCRYRQVLQL
modifications: not fully specified; acetylated N-terminus (L-tyrosine 1) joined by a thioether bond to the side chain of Cys4 (cyclic); C-terminal amide
notes: cyclic peptide from RaPID selection 3; also called PAD4_11; source: synthetic peptide (Fmoc solid-phase synthesis, HPLC-purified)
B13: PADI4_12 (peptide)
peptide: YEPCRFREILDL
modifications: not fully specified; acetylated N-terminus (L-tyrosine 1) joined by a thioether bond to the side chain of Cys4 (cyclic); C-terminal amide
notes: cyclic peptide from RaPID selection 3; also called PAD4_12; source: synthetic peptide (Fmoc solid-phase synthesis, HPLC-purified)

T3 sequence (Q9UM07 whole entry, the tested form may be a part): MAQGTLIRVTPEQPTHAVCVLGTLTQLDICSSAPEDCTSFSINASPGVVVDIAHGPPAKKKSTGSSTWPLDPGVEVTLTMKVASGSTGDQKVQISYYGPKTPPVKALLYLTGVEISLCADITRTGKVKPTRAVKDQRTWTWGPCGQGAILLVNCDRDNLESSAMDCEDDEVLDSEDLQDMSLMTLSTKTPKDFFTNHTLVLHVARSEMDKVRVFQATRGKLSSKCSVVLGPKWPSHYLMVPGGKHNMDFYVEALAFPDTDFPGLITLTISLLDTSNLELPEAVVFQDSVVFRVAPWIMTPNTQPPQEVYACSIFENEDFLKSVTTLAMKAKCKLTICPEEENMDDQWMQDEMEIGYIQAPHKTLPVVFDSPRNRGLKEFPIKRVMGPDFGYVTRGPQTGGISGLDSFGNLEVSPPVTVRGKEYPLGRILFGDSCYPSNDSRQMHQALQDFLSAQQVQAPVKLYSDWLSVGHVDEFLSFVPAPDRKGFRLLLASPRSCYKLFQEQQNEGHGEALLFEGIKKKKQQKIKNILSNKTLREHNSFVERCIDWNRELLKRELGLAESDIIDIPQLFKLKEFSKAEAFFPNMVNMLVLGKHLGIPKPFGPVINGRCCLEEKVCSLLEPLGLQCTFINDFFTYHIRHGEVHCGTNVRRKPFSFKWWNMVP
His-tagged recombinant human PADI4 (His-PADI4), sequence (Q9UM07 whole entry): as the sequence (Q9UM07 whole entry, the tested form may be a part) above

The target of one assay is T1, N-terminally biotinylated human PADI4 (bio-His-PADI4) (human, UniProt Q9UM07 1-663, G55S (read from the plasmid's DNA at D1:p46, codon AGC)); not stated by the …, biotin on the Avi-Tag (BirA)).
T1 construct: human PADI4, residues 1-663, cloned into p28BIOH-LIC; The COLDER assays used His-PADI4 from the same plasmid made without BirA (not biotinylated); also called Bio-hPADI4 wt; Avi-His-PADI4; source: E. coli BL21-DE3 co-expressing biotin ligase (BirA), purified (Ni-NTA, S200 size exclusion); not shown: Avi-Tag, N-terminal, kept; His6, N-terminal, kept
T1 sequence (Q9UM07 whole entry G55S/V82A/G112A, the tested form may be a part): as the sequence (Q9UM07 whole entry, the tested form may be a part) above, with G55S, V82A, G112A counted along it
In words: SPR; single cycle kinetics; Bio-His-PADI4 captured on a Biotin CAPture chip, peptide as analyte; 25 °C; 50 mM HEPES pH 7.5, 150 mM NaCl, 2 mM DTT, 0.05% Tween-20, 0.1% DMSO; CaCl2 concentration not stated for these data; 1:1 binding model. The settings on record: both partners purified.
The molecule B1 yielded a Kd of more than 10 µM.

The target of another assay is T2, N-terminally biotinylated recombinant human PADI4 (bio-His-PADI4) (human, UniProt Q9UM07 1-663, biotin on the N-terminal Avi-Tag (BirA)).
T2 construct: human peptidylarginine deiminase IV (PADI4), residues 1-663; (vector p28BIOH-LIC, Addgene plasmid 62352); also called Bio-hPADI4 wt; PADI4_WT; source: E. coli BL21-DE3 co-expressing biotin ligase (BirA), purified (Ni-NTA, S200 SEC); not shown: Avi-Tag (biotinylated), N-terminal, kept; His6, N-terminal, kept
T2 sequence (Q9UM07 whole entry, the tested form may be a part): as the sequence (Q9UM07 whole entry, the tested form may be a part) above
The assay can be described thus: SPR; single cycle kinetics, Biacore T200 or S200; Bio-His-PADI4 captured on a Biotin CAPture chip (~2000 RU), peptide as analyte; 50 mM HEPES pH 7.5, 150 mM NaCl, 2 mM DTT, 0.05% Tween-20, 0.1% DMSO, 10 mM CaCl2; 25 °C; 1:1 binding model. The settings on record: both partners purified. On the technique in general: Surface plasmon resonance follows binding to a sensor surface in real time, without labels.
As for B2, the equilibrium dissociation constant (Kd) was more than 2 µM.
As to B3, the Kd is more than 2 µM.
For the molecule B4, the equilibrium dissociation constant (Kd) is 0.039 µM.
For the molecule B5, the Kd is more than 2 µM.
Still for that read-out and setting: then B6, with more than 2 µM; and B7, with more than 2 µM; and B8, with more than 2 µM.
Consider B9, for which the Kd worked out at 0.205 µM.

The target of a further assay is T2, N-terminally biotinylated recombinant …. In words: SPR; as a1 but 0 mM CaCl2 (calcium-free running buffer); Bio-His-PADI4 captured, peptide as analyte; 25 °C; 1:1 binding model. The settings on record: both partners purified.
As for B2, the Kd is more than 2 µM.
In the case of B3, the Kd was more than 2 µM.
Same read-out and setting: then B4, with 0.008 µM; and B5, with more than 2 µM; and B6, with more than 2 µM.
Consider B7, for which the dissociation constant Kd was more than 2 µM.
Still for that read-out and setting: then B8, with more than 2 µM; and B9, with 0.105 µM.

Another assay addresses His-tagged recombinant human PADI4 (His-PADI4) (human, UniProt Q9UM07 1-663). The assay can be described thus: cell-based or functional assay.
Conditions: not given
Consider B10, for which the “IC50 of inhibition of PADI4 activity (COLDER assay, substrate BAEE, 10 mM CaCl2, 50 nM PADI4)” value is 0.209 µM.
For the molecule B11, the “fold reduction of the calcium requirement K50(Ca2+) of PADI4 activity by 30 µM peptide (COLDER assay)” value is 4 fold.

For the next assay, the target named is T1, N-terminally biotinylated human PADI4 …. The assay can be described thus: SPR; as a1 with 10 mM Ca2+ and 200 µM Cl-amidine (PADI4 active site covalently blocked with Cl-amidine). The settings on record: both partners purified.
Molecule B12 gave a dissociation rate constant (koff) of 0.1 s⁻¹ and a kon of 300000 M⁻¹ s⁻¹.
B13 displayed a koff of 0.2 s⁻¹ and a kon of 300000 M⁻¹ s⁻¹.

Another assay has the same target. In words: SPR; single cycle kinetics, Biacore T200 or S200; Bio-His-PADI4 captured on a Biotin CAPture chip (~2000 RU), peptide as analyte; 25 °C; 50 mM HEPES pH 7.5, 150 mM NaCl, 2 mM DTT, 0.05% Tween-20, 0.1% DMSO, 10 mM Ca2+; 1:1 binding model. The settings on record: both partners purified.
Consider B12, for which the koff was determined as 0.1 s⁻¹ and the on-rate constant (kon) worked out at 200000 M⁻¹ s⁻¹.
B13 displayed a Kd of 0.679 µM, an off-rate (koff) of 0.1 s⁻¹ and an on-rate (kon) of 200000 M⁻¹ s⁻¹.

Another assay concerns the target T3, bio-His-PADI4 with the active site covalently blocked by Cl-amidine (human, UniProt Q9UM07 1-663, biotin on the N-terminal Avi-Tag (BirA); active site covalently blocked with Cl-amidine (residue not stated)).
T3 construct: human peptidylarginine deiminase IV (PADI4), residues 1-663; Same protein as m1; also called 10 mM CaCl2 + Cl-amidine; source: E. coli BL21-DE3 co-expressing biotin ligase (BirA), purified (Ni-NTA, S200 SEC); treated with Cl-amidine; not shown: Avi-Tag (biotinylated), N-terminal, kept; His6, N-terminal, kept
The assay can be described thus: SPR; as a1 with 10 mM CaCl2 and the PADI4 active site blocked with Cl-amidine; Bio-His-PADI4 captured, peptide as analyte; 25 °C; 1:1 binding model. The settings on record: both partners purified.
Consider B2, for which the Kd was more than 2 µM.
Consider B3, for which the dissociation constant (Kd) was more than 2 µM.
B4: the dissociation constant Kd was 0.036 µM.
B5 displayed an equilibrium dissociation constant (Kd) of more than 2 µM.
The molecule B6 returned a Kd of more than 2 µM.
For the molecule B7, the dissociation constant (Kd) was more than 2 µM.
Take B8: the Kd was more than 2 µM.
On to B9, for which the Kd is 0.727 µM.

One may read the Kd as the constant that tells how readily two partners part at equilibrium. What is called koff is the first-order rate constant of dissociation. A low value points to slow dissociation. As usually defined, the kon is the rate constant with which the complex forms.

The values above are taken from publication PMC11555231, “A cyclic peptide toolkit reveals mechanistic principles of peptidylarginine deiminase IV regulation” (Nature Communications, 2024).
